Laboratory results reported in the DeepSol protein solubility set.

assay: soluble on expression in E. coli; label from the status in PepcDB or PDB records

Question: With “MGSDKIHHHHHHMLQPHEMHLAGDLLDFLRDPSTAIARDFATQATLMRIASGATVFAEGDECSFFAILADGQIRVFKIGETGREITLYRFGRGESCILTTSCVLSNHQFPAIAVVEREATAFLVGQAIFRDWIERYSAWRDYVFQLLSRRLASVMAIIDEIAFRRVDVRLAAFLLRQAVGDPPTLNLTHQQIAAELGTSREVVSRILADFSEEGLISSSRGQITVCDRTRLYQRSEAR” as the sequence, how does the “soluble on expression in E. coli” value read?
Answer: not soluble

Question: With “MGSDKIHHHHHHMLRVAVVGGGPSGSCAAEVLAKAGIQTWLFERKLDNAKPCGGAIPLCMVDEFDLPESIIDRKVRNMRMISPSNREVDITLDKVYSPDDKSEYIGMCRREVMDAFMRDRAASLGTNLINGLVTKIDTGSNRQGPYTITYSDYSTGKSTGEAKSLEVDLIIGADGANSRVATAMDAGDYNVAIAFQERIKLPNEEMAYYEDLAEMYVGTDVSPDFYGWVFPKYDHVAVGTGTMQKNQTLIKSLQKGVRERAKKRLVHGEVIKVEAHPIPEHPRPRRVVGRMALVGDAAGYVTKSSGEGIYFAAKSGRMCAEQIVESSRSGELIPSEADLKKYLKKWDRKYGSTYIVLSILQAIFYSNDTAREAFVAMCDDMDVQRLTFDSYLYKKVVAMNPWQQIKLTLLTVDALARGIFRNQTSYKPVPSAVRSDEEVNAMLEIKTITGGIKVDNNKDASKQNLASEQEERDPAVSNKS” as the sequence, how does the “soluble on expression in E. coli” value read?
Answer: not soluble

Question: Which “soluble on expression in E. coli” value does the source give for “MGSDKIHHHHHHMLSCHLTSPNLVPCETVDNRSSFQILFDHESIIKTYVPVMKLRFRQLQAFHAIVETGTVTGAAGLLGISQPGVSNLLSQLEDQAGMALFERLHGRLLPTPEAELLFAEVDTVMRGMSKVTQTMVDLKTRKLGQLQIASQHAMSFGFMPRLIARFASDRPELNISFQSQYSSKVQEWVWNGLFEIGVCEMPLLYDTLTVYPLYVETMLALHKDNPLARHEVLTPELLAGEPFIVMGQDHMTHRRLREAFQDAGVPLRTRVHSHLFKNLLSFVQEGMGVALLDRFMFDYDMQGDVITRPFRPTIRMDMCVITSKSRPMSQLGKEFLDLLLGELQHYSVEGRPLVPAERKRR” here?
Answer: not soluble

Question: Which “soluble on expression in E. coli” value does the source give for “MGSDKIHHHHHHMLSVAIPKAKPLLKQEKVATTAQKNQKEVIHYTAIGDSLTEGIGDLTNSGGFVPIVADDLKEHYNLNGVQTDNFGKNGDRSDQILKRIKEKPEIQKGLASADVITLTVGGNDLMKVISSNIFDLKVSSFNRPQKAYQRRVRRLLEEIREYNEKAPIYVLGIYNPFYLNFSEITEMQEIVDNWNQATEEMVQEQKRAYFIPINDLLYKGRGDEVGVTGGDSETTGSSASKEDLNNLLYEEDRFHPNNLGYQIMAGAVRDEMVKTEKEWITKSEGSE” here?
Answer: not soluble

Question: Which “soluble on expression in E. coli” value does the source give for “MGSDKIHHHHHHMLTKTIIGLDVGRSAVKVVAFANGLYYRLTFPSLVSPAFPINDEGTAARAELETVEVLGKRYFTGDTARLQGGVNMSVGLSHDWTNGPEYLALVASTMKRLAALGVPGLDSPYIVLGTPASLFGRQKEALAQRTQAVVAAEMKVLPQPMGAYCNFFMDARGVPIKDRQKRPDGKNRSWAVVEVGHYTTDFLLMREGNYIERAAVSCEGVHFAAENLVRILAAKDIQATPLTAEEALRTGVIVDFGERRIEAQVAEAVDHVVQKIMTMADSVLSNDVRSLDGVLLAGGGAPILAAGLQKKWPHTVLLENPRMAVADGFCRYGVGQMLRRAMAAEKATA” here?
Answer: not soluble

Question: Which “soluble on expression in E. coli” value does the source give for “MGSDKIHHHHHHMLTTPEMREQFRNDGVTIFRNCLNEAQLAQCYDGFKWDMANPGPHVYKGGLIGTTLHTHIDIANPEAKSELDDLAAALPFGQIFQELWDSKNVWYFAEEIFAKEGGKSGRGPWHQDTANLPWAGRHWGNAWISFQKLPKKNSLEIVRGSHLGIQYDGASFDSAEDPTDPLYGDGTYPRLPHIDNELARDPNSWDIVSFDINPGDIVLLHPRSLHGGAQVDADCPTRHTLVLRFFGDDATFRELPTCNPKYARNGPLFQKEMAKLNQGDAFRSPVFRQVAGV” here?
Answer: not soluble

Question: With “MGSDKIHHHHHHMLVKKISPRGYCYGVVDAMKLAQQAALNDNLPRPIHILGMIVHNAHVTREFERMGVLTVDGPDRLEALETIKEGTVIFTAHGISPAVYARAAEKKLTVVDATCPDVTRTHDLIRSVVADDYEVIYVGKHGHPEPEGAVGVAPEHVHLIEKVEDIEALPAHLADKKIIVTNQTTMSQWDVQALMEHVRKKYPHVEVHNEICNATQVRQEAVAEQAGDCDLVIVVGDPRSNNSNRLAQVSFDIAATPAHRIGDLTELDLSWLDGVNQVGVTSGASTPTPITKKVIDFLQQYDPADISTHDKTPFLELRRILPKVKIL” as the sequence, how does the “soluble on expression in E. coli” value read?
Answer: not soluble

Question: With “MGSDKIHHHHHHMLVNAYFIKLDSCQLPPRDLAVSVFLNLSKFNMPLTMPHLLELFVDSYFIEKKKRLRQCLQEPLDCGPVFHFSEPWEGLLSGYCTVLEDPLDGYFKLYYRGLSDGNLECSDGEVTCLALSHNGVEWFRPNLGLHKWLNRKSTNIILANNTPDSHNFTPFLDSSPTTLSHQRYKALAGVAPSGLNAYFSADGINWTNPYSKPVLTTGMFDSQNVAFWSSSEQKYVCFMRTWTGEGFSGIRTISRSTSTDFSSWTVPRRMSFGRIPLEHLYTNQTQPYPRAQQIYIGLAARFMPERQVITTEEALELSVDPSYYRDCSDVVLITSRGGNRYHRAVRQAFLKPGIGLENWVSRTNFPALGFIHTKPDEISFYMNKNYAQPNAYLSRFSFPLDRLGYLEASDSYGELITKSIPISSQDDLHLNLSTSAAGSCFVALLDENDATVSQFDMSSCLELIGNELSKPVRWLSSNGVSLRIGDSGLSSVKLHIRLLDARLFAFSLCSTDR” as the sequence, how does the “soluble on expression in E. coli” value read?
Answer: not soluble

Question: With “MGSDKIHHHHHHMLYQLHEFNRSLLNPLMHWAEASSRLFTDPASPLAYTPYAQRIAAGYELLYRLGKQYEKPNFNIESVLVNGKTVAIVEEETEKKSFCTLIHFRKKLSAKEFAALKQPVVLLVAPLSGHHSTLLRDTVRSLLQDHDVYITDWTDARMVPLAEGPFHLHDYVYYIQDFIRRLGPDLHVISVCQPTVPVLAAISLMASERDPRLPKTMTMMGGPIDARKSPTQVNDLAVEKPHAWFENQVIYSVPPSYPGFGRKVYPGFLQHAGFIAMNPGRHAQSHWDFYMHLREGDNESAEEHRKFYDEYNAVLDMPAEYYLETIKTVFQEHRLPLGTWEIEGKLVRPQDIKSVALFTIEGEKDDISGAGQTHAAQDLCSALPQSDKQQFTAPQCGHYGIFSGRKWREIIAPKIGEFITRYS” as the sequence, how does the “soluble on expression in E. coli” value read?
Answer: not soluble

Question: Which “soluble on expression in E. coli” value does the source give for “MGSDKIHHHHHHMMFEDTHDEHVLLTPGPTPIHPRAQKALIRSMLGHMDPEVFALNSEIQRDLREMYGTEPEGFTALLAGTGSLGMEAGFANLVEAGDEVLVCANGSFGRRMAEMAARYGAKVRLVTAPLGEAIKPADVAAHLDDDISMVAVVHGETSTGVLNPVPEIAELVRGSGALLTVDAVTTAGMEPFHMQQWGVDYAYTGAQKCLSAPPGLAPVAISERAFSRFAARRTQTPLWYCDFEGLRDYWVNHTYHHTVPVNLHFAFHAALRAALEEGLEARQARVRLMGRVIERTLAPLGFSHYVRRPEDRLPTVLALRLPEGFDDAGLRQALRQREISVTGGLGPTAGVIWRLGLMGESARPGPYHRLMTELEDLLGAPGLLDRYEAVLAEEQRGELALA” here?
Answer: not soluble

Question: Which “soluble on expression in E. coli” value does the source give for “MGSDKIHHHHHHMMHDDQVNIDIDIARKMIRDQFPQYRHEDITSVGSSGTVNAIFRIGSKSAARFPLRAMNPTECADMLRSEAAAMVEIGKHCLFPTPQPIGIGEPGPRYPMPWALQTWIEGEVATPHGLSGSTMFALDLARLVASLRQADTRGRRFDGQGRGGHLPDHDDWMAVCLENSEGLLDVARLRDLWARLRELPCAGSVVMSHKDLIPANLLVQGERLVGVLDGGSFGPADPSLDLVVGWHLLDRERRAAFRSGLQVEDLLWKRGAAWAFQQAMGLVWYYRRTNRAMSALGRSTLSRILADPDI” here?
Answer: not soluble

Question: Which “soluble on expression in E. coli” value does the source give for “MGSDKIHHHHHHMMKHLTLWHTNDVHSHLEHWPRIFNFLKEKRTAADKENQSALFFDIGDFLDRVHPLTEGTNGLANTDLLNQLPYDVVTFGNNEGTTLAHEDLDKLYEHAVFPVVCCNFYTNKECTEQPDWVKSIVYKEIEQVKIAIIGATAPFRDYYEEMGWGIEEPISSIKKQVAGLDEDTDVVILLSHLGLPSDERIALEIPEVDVILGGHTHHLLETGKIEGNALLAAAGRWGEYIGKVDIELDENNQILTKTAMTFKTEDLPAAPNEANEIQGFFDKGRAELSEKVVAIPGKLAHNWFDDSEIAHILNEAVCEWTGAETFVMNAGIFMTDFEAGIVTDFDIHQMLPHPLNAIALTMSGEELEILIDGIYRKKAELQDIPLRGFGFRGEYFGTVLMERAGFDAENQVALFDNKPIDKTREYRIATHDTFVFAPFFPIVKQIKRKEVYTPELLRDILKWKLKKMYGQEEDK” here?
Answer: not soluble

Question: With “MGSDKIHHHHHHMMKKKWYIVLTMSGYEEKVKENIEKKVEATGIKNLVGRIVIPEEVVLDATSPSERLILSPKAKLHVNNGKDVNKGDLIAEEPPIYARRSGVIVDVKNVRKIVVETIDRKYTKTYYIPESAGIEPGLRVGTKVKQGLPLSKNEEYICELDGKIVEIERMKKVVVQTPDGEQDVYYIPLDVFDRDRIKKGKEVKQGEMLAEARKFFAKVSGRVEVVDYSTRKEIRIYKTKRRKLFPGYVFVEMIMNDEAYNFVRSVPYVMGFVSSGGQPVPVKDREMRPILRLAGLEEYEEKKKPVKVELGFKVGDMVKIISGPFEDFAGVIKEIDPERQELKVNVTIFGRETPVVLHVSEVEKIE” as the sequence, how does the “soluble on expression in E. coli” value read?
Answer: not soluble

Question: Which “soluble on expression in E. coli” value does the source give for “MGSDKIHHHHHHMMNERIKQRRKELGLTQPSIAKTIGLTKATISLWESGSTSPKGENLHALAKALRCAPEFLLFGNDSIKPEPNAEWAGGFETWGSNSPLGDDEVEIPFYMEVELAAGDGIIDCREYQGPKLRFAKSTLKRQGVTSDHAACVKVNGNSMEPVLPNGSTVGVDTAHTDIVDGKMYAINHDGMLRVKMLYKLPGGGLRLRSYNLDEYPDERLDAEELKQVKVIGKVFWYSVLV” here?
Answer: not soluble

Question: With “MGSDKIHHHHHHMMTSTPRLLQAIQQTTTAILKTNLVGIYLHGSYVLGSYNEQVSDLDYLIVVRRSLTLAEKRQLMTATITQLWPLAPHKGLEFHVLLLSATQHFVHPCPFDFHFSKYHYEDYQRTPLAYLKAMHGTDPDLAAHLTILQAAGQVLLGPAITTVFGPIPAVAYWDSIKSDIANAETAIVQLPMYTVLNLCRVRAYQQDQLIISKQAGGEWGLQQLPTQWHPLIRQALAAYAGQQDEQVIRWSRPNLVAFARIMLAELGLKSE” as the sequence, how does the “soluble on expression in E. coli” value read?
Answer: not soluble

Question: For “MGSDKIHHHHHHMMWEQFKKEKLRGYLEAKNQRKVDFDIVELLDLINSFDDFVTLSSCSGRIAVVDLEKPGDKASSLFLGKWHEGVEVSEVAEAALRSRKVAWLIQYPPIIHVACRNIGAAKLLMNAANTAGFRRSGVISLSNYVVEIASLERIELPVAEKGLMLVDDAYLSYVVRWANEKLLKGKEKLGRLQEALESLQRENAYCSD”, which “soluble on expression in E. coli” value is on record?
Answer: soluble

Question: With “MGSDKIHHHHHHMNAPLNHPLPLLDLDVLRTFVAIAETGSFTTAANAVFRTPSAVSMQIKKLEDILGRSVFARDARSVSLTTDGEMLLGYARRLLSINREVVSKFIIPEIVGVVRLGSPDDYGERVLPHVLKRFAQSHPSIAVDVTIDQSSNLRRRMDDRALDITLLTNSYKTSALGAEVLLTEPIVWAGAKGGCAHLREPLPVSLWEEGCAWRAGALEALGREGRNYRVAYMSAHTAGQRAAIMADLAVAPLPRSFLGNDMVELCPKDGMPDIGTYNLAMVVAPDASAPVKAVADHIRATFEVFRETGKF” as the sequence, how does the “soluble on expression in E. coli” value read?
Answer: not soluble

Question: For “MGSDKIHHHHHHMNAVLQKKGGVGIIILARLDSTRLPGKALRTAAGKEMLGYVVERARMVRGVSEIVLATTDRTVDDRLEEYAAACDLAVFRGSDVDVAGRVAACVRWRGWDAFVRINGDSPFIDPQTISSAVNLLYGLGGVSAAGLSDSHAQRGNMHAECASLPLVACGSVTLAGYAGHDATELPDMVTNVLRRTFPKGQSVEVCRASAFLAGYAAMHLPEHLEHVTKYFYDTRSIRIMNMESGDPSLGEIQLAVDTEEDFALFERMLARMDRPHTAYAAHEIIELYRECLHG”, which “soluble on expression in E. coli” value is on record?
Answer: not soluble
